Laboratory results published in patent publication US20250114467A1 (SHANGHAI FUDAN ZHANGJIANG BIO PHARMACEUTICAL, published 2025).

T1: recombinant DLL3 protein (purchased from ACRO, DL3-H5255) (human, UniProt Q9NYJ7 27-479)
T1 construct: Bought; also called human DLL3 protein; hDLL3
T1 sequence (looked up): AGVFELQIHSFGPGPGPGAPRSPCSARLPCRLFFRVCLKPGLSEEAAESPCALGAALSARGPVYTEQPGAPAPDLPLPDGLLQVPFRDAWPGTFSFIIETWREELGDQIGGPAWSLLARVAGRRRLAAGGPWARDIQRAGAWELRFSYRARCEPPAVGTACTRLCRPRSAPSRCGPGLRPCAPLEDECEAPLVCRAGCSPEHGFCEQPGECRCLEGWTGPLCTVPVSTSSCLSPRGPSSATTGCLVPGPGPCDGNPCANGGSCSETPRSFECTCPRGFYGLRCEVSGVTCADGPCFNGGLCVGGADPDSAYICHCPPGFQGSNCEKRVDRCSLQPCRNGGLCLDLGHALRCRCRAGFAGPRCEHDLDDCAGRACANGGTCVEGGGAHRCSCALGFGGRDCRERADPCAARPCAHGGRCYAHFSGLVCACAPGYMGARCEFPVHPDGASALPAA

T2: human DLL1 (purchased from Acro, DL1-H52H8) (human, UniProt O00548 18-540)
T2 construct: Bought; also called hDLL1
T2 sequence (looked up): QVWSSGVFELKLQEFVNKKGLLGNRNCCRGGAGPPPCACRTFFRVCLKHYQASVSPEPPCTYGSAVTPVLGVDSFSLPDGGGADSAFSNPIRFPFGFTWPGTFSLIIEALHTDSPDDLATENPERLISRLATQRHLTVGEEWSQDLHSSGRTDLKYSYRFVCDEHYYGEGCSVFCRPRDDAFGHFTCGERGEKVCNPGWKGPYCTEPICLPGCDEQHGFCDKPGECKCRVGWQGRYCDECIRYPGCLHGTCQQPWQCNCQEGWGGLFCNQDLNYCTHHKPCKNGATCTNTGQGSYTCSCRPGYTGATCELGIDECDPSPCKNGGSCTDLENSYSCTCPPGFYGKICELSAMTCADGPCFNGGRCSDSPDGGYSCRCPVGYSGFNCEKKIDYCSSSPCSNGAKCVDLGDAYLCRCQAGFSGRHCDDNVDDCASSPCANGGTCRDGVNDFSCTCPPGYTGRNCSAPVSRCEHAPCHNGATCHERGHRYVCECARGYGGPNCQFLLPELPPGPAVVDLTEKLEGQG

T3: human DLL3, His tag (acrobiosystems, DL3-H52H4) (human, UniProt Q9NYJ7 27-492)
T3 construct: Bought; also called human DLL3 protein; free DLL3; not shown: His tag
T3 sequence (looked up): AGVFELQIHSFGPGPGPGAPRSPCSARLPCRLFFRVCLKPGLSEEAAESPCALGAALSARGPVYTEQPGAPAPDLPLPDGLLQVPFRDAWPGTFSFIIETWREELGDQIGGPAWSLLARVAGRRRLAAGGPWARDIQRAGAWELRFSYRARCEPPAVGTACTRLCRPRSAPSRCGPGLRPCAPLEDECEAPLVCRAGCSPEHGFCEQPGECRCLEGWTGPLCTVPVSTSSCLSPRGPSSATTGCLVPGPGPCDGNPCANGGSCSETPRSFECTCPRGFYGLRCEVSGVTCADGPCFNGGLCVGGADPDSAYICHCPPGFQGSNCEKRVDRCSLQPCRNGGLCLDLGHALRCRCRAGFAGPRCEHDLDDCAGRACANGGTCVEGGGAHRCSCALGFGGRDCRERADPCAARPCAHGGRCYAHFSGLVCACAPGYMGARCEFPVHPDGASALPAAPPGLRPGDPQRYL


Assays:
[1] = target: T1, recombinant DLL3 protein (purchased …); assay: ELISA, plate-coated human DLL3 protein 1 µg/ml
Source text: Six 6-week-old SPF grade female Balb/C mice (purchased from Shanghai Jihui Laboratory Animal Care Co., Ltd.) were selected and randomly divided into two groups, A and B. They were immunized with recombinant DLL3 protein (purchased from ACRO, DL3-H5255) at two-week intervals. Freund's complete adjuvant was used for the first immunization and Freund's incomplete adjuvant was used for subsequent immunizations. On days 35 and 49, blood samples were collected from the mice via orbital bleeding, and the immune serum titers of the mice were detected using conventional methods of ELISA and Flow Cytometry (FACS). ELISA detection method: DLL3 protein was diluted with PBS to a concentration of 1 μg/ml. 100 μl/well was added to a 96-well ELISA plate and incubated overnight at 4° C. The next day, the supernatant was discarded, and each well was blocked with 200 μl of 2% milk in PBS for 2 hours. After discarding the blocking solution, the wells were washed 3 times with 200 μl of PBST (0.1% Tween20). The serum to be detected was pre-diluted 100 times as the starting concentration, followed by a 3-fold gradient dilution across 11 concentrations, with 100 μl added to each well of the ELISA plate. After incubating at room temperature for 1 hour, the supernatant was discarded and the wells were washed 5 times with 200 μl of PBST (0.1% Tween20). Then, 100 μl of HRP-labeled goat anti-mouse secondary antibody (Jackson, 1:10000) was added and incubated at room temperature for 1 hour. After discarding the supernatant, the wells were washed 7 times with 200 μl of PBST (0.1% Tween20). 100 μl of TMB chromogen solution was added to each well for 10 minutes. The reaction was terminated with 2M HCl, and absorbance value at 450 nm was read with a Microplate Reader (purchased from Biotek, Elx808).
For the hybridoma clones with good binding and internalization activities identified in Example 5, the heavy chain variable region sequences were synthesized and cloned into the pFUSEss-CHIg-hG1 vector (purchased from InvivoGen, catalog number pfusess-hchgl) comprising the amino acid sequence of the human antibody IgG1 heavy chain constant region by homologous recombination.

[2] = target: T2, human DLL1 (purchased from Acro, …); assay: ELISA on plate-coated human DLL1 protein (1 µg/ml), HRP goat anti-human secondary, OD 450 nm [left panel]
Method: (§1) The chimeric antibodies obtained in Example 6 were evaluated for their binding abilities to human DLL1 (purchased from Acro, DL1-H52H8) and DLL4 (purchased from Acro, DL4-H5227) proteins using the ELISA method. The ELISA detection method involved diluting DLL1 and DLL4 proteins with PBS to a final concentration of 1 μg/ml and coating them onto 384-well ELISA plates (purchased from Corning, 3700) at 4° C. overnight. The next day, the supernatant in the plate wells was discarded, and the wells were blocked with 80 μl of 3% milk (dissolved in PBS) for 2 hours, followed by washing three times with 80 μl of PBST (0.1% Tween20). […] After washing with 80 μl of PBST (0.1% Tween20) for five times, 25 μl of HRP-labeled goat anti-human secondary antibody (Jackson, 1:10000) was added to each well and incubated at room temperature for 1 hour, discard the supernatant, and the wells were then washed seven times with 80 μl of PBST (0.1% Tween20). After adding 25 μl of TMB chromogen solution for 10 minutes, the reaction was terminated with 2M HCl, and the absorbance value at 450 nm was measured with a Microplate reader (purchased from Biotek, Elx808). […] To assess the cross-reactivity of the antibodies with mouse and monkey DLL3, mouse DLL3-expressing plasmid pCMV3-mDLL3 (purchased from Beijing Yiqiao, MG58052-UT) and monkey DLL3-expressing plasmid pCMV3-rheDLL3 (purchased from Beijing Yiqiao, CG90919-UT) were used to construct overexpressing cell lines. The construction of overexpressing cells was as described in Examples 2-3. The binding abilities of the chimeric antibodies to these cells were determined by flow cytometry to assess the cross-reactivity of the antibodies with different species.

[3] = target: T3, human DLL3, His tag (acrobiosystems, …); assay: BLI (Octet 96e), antibody on sensor, DLL3-His 100-3.13 nM in solution
Method: To assess the affinity of antibodies for human DLL3 protein, this study employed the BLI method to detect the binding kinetics curves of immobilized antibodies with free DLL3. The method was conducted according to the instrument's user manual (supplier: Fortebio, equipment model: Octet 96e). Briefly, AMC sensors were equilibrated for 60 s with Loading Buffer/Sample dilution buffer (1×PBS, pH7.4, with 0.1% BSA and 0.02% Tween-20) to obtain Baseline 1. The antibodies to be detected were diluted with Loading Buffer to a concentration of 10 ug/ml and bound to the equilibrated sensors, after which the sensors were re-equilibrated with Loading Buffer to obtain Baseline 2. The antibody-loaded sensors were then placed in human DLL3, His tag (supplier: acrobiosystems, catalog number: DL3-H52H4) diluted with Sample Dilution Buffer to concentrations ranging from 100 to 3.13 nM for 90 s to obtain the antibody-protein binding curve. Then, the sensors combined with antigen were placed in the Sample Dilution Buffer again and dissociated for 180 s, and the dissociation curve was obtained. The k-on and k-off values of the antibody-protein binding were calculated based on the binding and dissociation curves, and the KD values were calculated, with the results shown in Table 4.

[4] = target: T4, human DLL4 (purchased from Acro, DL4-H5227) (human, UniProt Q9NR61 27-524); assay: ELISA on plate-coated human DLL4 protein (1 µg/ml), HRP goat anti-human secondary, OD 450 nm [right panel]
T4 construct: Bought; also called hDLL4
Method: as §1

[5] = target: T4, human DLL4 (purchased from Acro, …); assay: ELISA, plate-coated protein 1 µg/ml
Method: as §1

T4 sequence (Q9NR61 27-524 limits assumed): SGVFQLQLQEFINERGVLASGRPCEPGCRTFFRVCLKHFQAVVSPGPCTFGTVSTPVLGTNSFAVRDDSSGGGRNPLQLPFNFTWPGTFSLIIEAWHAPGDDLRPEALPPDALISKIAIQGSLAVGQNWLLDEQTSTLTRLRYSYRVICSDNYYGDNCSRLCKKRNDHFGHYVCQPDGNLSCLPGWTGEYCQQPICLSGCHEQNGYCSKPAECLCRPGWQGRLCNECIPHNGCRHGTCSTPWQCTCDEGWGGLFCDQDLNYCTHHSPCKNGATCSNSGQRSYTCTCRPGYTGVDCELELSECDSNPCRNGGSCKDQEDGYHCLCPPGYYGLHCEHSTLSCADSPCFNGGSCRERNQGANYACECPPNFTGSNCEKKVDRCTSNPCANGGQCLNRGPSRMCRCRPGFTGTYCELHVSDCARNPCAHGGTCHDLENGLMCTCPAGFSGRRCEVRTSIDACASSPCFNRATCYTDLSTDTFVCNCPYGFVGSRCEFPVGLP

| Binder | EC50 [1] | binding result [2] | Kd [3] | koff [3] | kon [3] | binding result [4] | binding result [5] |
| --- | --- | --- | --- | --- | --- | --- | --- |
| FDA031 (antibody, human IgG1, kappa, V domains shown, also called anti-DLL3 antibody FDA031) VH: QVQLVQSGAEVKKPGASVKVSCKASGYTFTRYWIHWIRQAPGQGLEWMGYINPTTVYTEFNQNFKDRVTMTRDTSTSTVYMELSSLRSEDTAVYYCARGGSNFFDYWGQGTTVTVSS VL: AIQLTQSPSSLSASVGDRVTITCRASENIYYNLAWYQQKPGKAPKLLIYTANSLEDGVPSRFSGSGSGTDFTLTISSLQPEDFATYFCKQAYDVPPTFGGGTKLEIKR | 0.0233 µg/mL | no binding (tested: 20 µg/ml) |  |  |  |  |  |
| ch36H10 (antibody, human IgG1, kappa, V domains shown, Chimeric: murine variable regions on human IgG1 heavy and kappa light constant regions; also called chimeric antibody 36H10) VH: EVQFQQSGPELVKPGASVKISCKASGYTFTDYNIHWVRQSQGKSLEWIGLIYPFNGGIVYNQKFKSKATLTVDNSSTSAYMELRSLSSEDSAVYFCARLNWEGYWGQGSTLIVSS VL: DIKMTQSPSSIYAFLGERVTITCKASQDINSYLSWFQQKPGKSPKTLIYRANRLVGGVPSRFSGSGSGQDYSLTISSLEYEDVGDYYCLQYAEFPYTFGGGTKLEIKR | 0.0159 µg/mL |  | 0.0991 nM | 0.000168 s⁻¹ | 1.69e+06 M⁻¹ s⁻¹ | no binding (tested: 20 µg/ml) |  |
| ch4H7 (antibody, human IgG1, kappa, V domains shown, Chimeric: murine variable regions on human IgG1 heavy and kappa light constant regions; also called chimeric antibody 4H7) VH: EVQLQQSGAELVRPGALVKLSCKASGFNFKDYYIHWVKQRPELGLEWIGWIDPENGNAIYDPKFQDKASITADTSSNTAYLHLSSLTSEGTAVYYCASEDAYYPFAYWGQGTLVTVSA VL: DIVMSQSPSSLAVSVGEKVTMRCKSSQSLLYSSNQKNYLAWYQQKPGQSPKLLIYWASTRESGVPDRFTGSGSGTDFTLTISSVKAEDLAVYFCQQYYSYRTFGGGTKLEIKR | 0.0115 µg/mL |  | 0.104 nM | 0.000111 s⁻¹ | 1.07e+06 M⁻¹ s⁻¹ |  | no binding (tested: up to 20 µg/ml) |
